Laboratory results as given in publication PMC3267021, “The Molecular Basis for the Endocytosis of Small R-SNAREs by the Clathrin Adaptor CALM” (Cell, 2011).
Numbering of substitutions follows the chain as printed. “And” between values parts separate entries of the source, which are not always exact repeats. Equal values may be shown once.

B1: His6MycCALM_(ANTH) (CALM ANTH domain, residues 1-289) (domain or fragment)
chain: MSGQSLTDRITAAQHSVTGSAVSKTVCKATTHEIMGPKKKHLDYLIQCTNEMNVNIPQLADSLFERTTNSSWVVVFKSLITTHHLMVYGNERFIQYLASRNTLFNLSNFLDKSGLQGYDMSTFIRRYSRYLNEKAVSYRQVAFDFTKVKRGADGVMRTMNTEKLLKTVPIIQNQMDALLDFNVNSNELTNGVINAAFMLLFKDAIRLFAAYNEGIINLLEKYFDMKKNQCKEGLDIYKKFLTRMTRISEFLKVAEQVGIDRGDIPDLSQAPSSLLDALEQHLASLEGKK
B2: GST-VAMP3 (VAMP3 residues 1-81) (domain or fragment)
chain: MSTGVPSGSSAATGSNRRLQQTQNQVDEVVDIMRVNVDKVLERDQKLSELDDRADALQAGASQFETSAAKLKRKYWWKNCK
B3: GST-VAMP8_(10-41) (domain or fragment, mouse, UniProt O70404 10-41, looked up)
chain: NDRVRNLQSEVEGVKNIMTQNVERILSRGENL
notes: VAMP8, mouse, residues 10-41 (N-terminal half of the SNARE motif); Construct pGEX 4T2 VAMP8_((10-41)); also called residues 10-41 of VAMP8; source: E. coli BL21(DE3) pLysS, purified (glutathione sepharose, S200 gel filtration)
B4: GSTVAMP8 L44PL51P (domain or fragment, mouse, UniProt O70404 1-76, looked up)
chain: MEEASGSAGNDRVRNLQSEVEGVKNIMTQNVERILSRGENLDHPRNKTEDPEATSEHFKTTSQKVARKFWWKNVKM
notes: VAMP8, mouse, residues 1-76; source: E. coli BL21(DE3) pLysS, purified (glutathione sepharose, S200 gel filtration)
B5: CALM_(ANTH(1-264)), GST cleaved (domain or fragment, rat, UniProt O55012 1-264, looked up)
chain: MSGQSLTDRITAAQHSVTGSAVSKTVCKATTHEIMGPKKKHLDYLIQCTNEMNVNIPQLADSLFERTTNSSWVVVFKSLITTHHLMVYGNERFIQYLASRNTLFNLSNFLDKSGLQGYDMSTFIRRYSRYLNEKAVSYRQVAFDFTKVKRGADGVMRTMNTEKLLKTVPIIQNQMDALLDFNVNSNELTNGVINAAFMLLFKDAIRLFAAYNEGIINLLEKYFDMKKNQCKEGLDIYKKFLTRMTRISEFLKVAEQVGIDRGDI
notes: source: E. coli BL21(DE3) pLysS, purified (glutathione sepharose, thrombin cleavage of GST, S200 gel filtration); not shown: GST, N-terminal, cleaved
B6: VAMP8_((11-41)) part of the CALM_(ANTH(1-264)):VAMP8_((11-41)) chimera (domain or fragment, mouse, UniProt O70404 11-41, looked up)
chain: DRVRNLQSEVEGVKNIMTQNVERILSRGENL
notes: VAMP8, mouse, residues 11-41; also called VAMP8 helix; residues 11-41 of VAMP8; source: E. coli BL21(DE3) pLysS, purified (as part of the chimera)
B7: GST-VAMP8 (VAMP8 residues 1-76, full cytoplasmic portion) (domain or fragment, mouse, UniProt O70404 1-76, looked up)
chain: B4 chain with P44L, P51L
notes: VAMP8, mouse, residues 1-76 (full cytoplasmic portion); Construct pGEX 4T2 VAMP8_(1-76); GST of pGEX vectors is N-terminal (surmise); also called VAMP8_(1-76); wt GSTVAMP8; source: E. coli BL21(DE3) pLysS, purified (glutathione sepharose, S200 gel filtration)
B8: GSTVAMP8 K24AM27A (domain or fragment, mouse, UniProt O70404 1-76, looked up)
chain: B4 chain with K24A, M27A, P44L, P51L
notes: VAMP8, mouse, residues 1-76; pGEX 4T2 VAMP8_(1-76) (mouse) 'and mutants thereof'; also called K24AM27A VAMP8; Lys24AlaMet27Ala mutant of VAMP8; source: E. coli BL21(DE3) pLysS, purified (glutathione sepharose, S200 gel filtration)
B9: VAMP8_(1-76)His12, GST cleaved (domain or fragment, mouse, UniProt O70404 1-76, looked up)
chain: B4 chain with P44L, P51L
notes: VAMP8, mouse, residues 1-76; Construct pGEX 4T2 VAMP8_((1-76))His12; also called His12-tagged VAMP8; His-tagged VAMP8; source: E. coli BL21(DE3) pLysS, purified (glutathione sepharose, thrombin cleavage of GST, Ni2+-NTA agarose, dialysis); not shown: GST, N-terminal, cleaved
B10: syntaxin3 (residues 195-253), GST cleaved (domain or fragment, human, UniProt Q13277 195-253, looked up)
chain: EGRHKDIVRLESSIKELHDMFMDIAMLVENQGEMLDNIELNVMHTVDHVEKARDETKKA
notes: syntaxin3, human, residues 195-253; Construct pGEX 4T1syntaxin3_((195-253)) (human); also called syntaxin3_((195-253)); Synatxin3(195–253); source: E. coli BL21(DE3) pLysS, purified (glutathione sepharose, thrombin cleavage of GST); not shown: GST, N-terminal, cleaved

Legend:
GST-SNARE (WT or mutant) = test: ITC; VPiTC; 2 mM His6MycCALM_(ANTH) (WT or mutant) or GST cleaved Epsin_(ENTH) titrated in 37 injections of 4-8 μL into 0.15 mM GST-SNARE in the cell; 100 mM HEPES pH 7.4, 150 mM NaCl, 4 mM DTT; legends give a representative run with SEM of the fit, the text the average of all runs
[1] = molecular target: T1, His6MycCALM_(ANTH) (CALM ANTH domain, residues 1-289) (rat, UniProt O55012 1-289); test: as above; settings: both partners purified
T1 construct: source: E. coli BL21(DE3) pLysS, purified (Ni2+-NTA agarose, S200 gel filtration)
T1 sequence (looked up): B1 chain

[2] = molecular target: the molecule itself; test: SEC-MALS; analytical S200 10/300 column, 20 mM HEPES pH 7.4, 120 mM NaCl, 4 mM DTT, 0.5 mL/min, inline MALS
[3] = molecular target: T2, CALM_(ANTH(1-264)) part of the CALM_(ANTH(1-264)):VAMP8_((11-41)) chimera (rat, UniProt O55012 1-264); test: crystal structure; CALM_(ANTH(1-264)):VAMP8_((11-41)) chimera on one chain, GST cleaved; sitting drops at 16°C, 100 mM phosphate-citrate pH 4.2, 200 mM NaCl, 50% (v/v) PEG-200; 2.0 Å; PDB 3ZYM; settings: both partners purified
T2 construct: PDB 3ZYM), VAMP8 11-41; also called CALM_(ANTH) in the chimeric complex; source: E. coli BL21(DE3) pLysS, purified (glutathione sepharose, thrombin cleavage of GST, S200 gel filtration); not shown: GST, N-terminal, cleaved
T2 sequence (looked up): B5 chain

SNAP23, GST cleaved = molecular target: T3, SNAP23, GST cleaved (human, UniProt O00161 1-211); test: pull-down; SNARE complex formation: GST-VAMP8 incubated with a three fold molar excess of SNAP23 and syntaxin3 at 4°C for 48 hr in 20 mM HEPES pH 7.4, 500 mM NaCl, 4 mM DTT, 0.5% NP-40; purified on glutathione-sepharose, then S200 gel filtration; settings: both partners purified
T3 construct: SNAP23, human; Construct pGEX 4T1 SNAP23 (human); source: E. coli BL21(DE3) pLysS, purified (glutathione sepharose, thrombin cleavage of GST); not shown: GST, N-terminal, cleaved
T3 sequence (looked up): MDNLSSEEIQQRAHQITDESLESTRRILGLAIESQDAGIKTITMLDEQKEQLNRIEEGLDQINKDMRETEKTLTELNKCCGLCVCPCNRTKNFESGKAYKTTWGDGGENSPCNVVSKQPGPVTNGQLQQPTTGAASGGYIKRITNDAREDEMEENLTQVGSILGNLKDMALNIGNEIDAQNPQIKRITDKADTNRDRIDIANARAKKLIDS

[4] = molecular target: T4, CALM_(ANTH(1-289)), GST cleaved (rat, UniProt O55012 1-289); test: SPR; liposome-based SPR, Biacore 3000, L1 chip; PC/PE + 5% DGS-NTA(Ni) liposomes with captured His12-tagged VAMP8 (600RU); GST cleaved CALM_(ANTH) as analyte, 10 nM to 50 μM, one minute injections at 50 μl/min; PC/PE binding subtracted; settings: both partners purified
T4 construct: analyte of the liposome-based SPR and crystallised as 3ZYK; also called GST cleaved CALM_(ANTH); source: E. coli BL21(DE3) pLysS, purified (glutathione sepharose, thrombin cleavage of GST, S200 gel filtration); not shown: GST, N-terminal, cleaved
T4 sequence (looked up): B1 chain

GSTVAMP8 K24AM27A = molecular target: B8; test: pull-down; SNARE complex formation: GST-VAMP8 incubated with a three fold molar excess of SNAP23 and syntaxin3 at 4°C for 48 hr in 20 mM HEPES pH 7.4, 500 mM NaCl, 4 mM DTT, 0.5% NP-40; purified on glutathione-sepharose, then S200 gel filtration; settings: both partners purified
[5] = molecular target: B7; test: as above; settings: both partners purified

Binder: B1
- stoichiometry N (GST-SNARE (WT or mutant)): 0.9 to 1.1

Binder: B2
- Kd [1]: 46 µM

Binder: B3
- Kd [1]: 20 µM

Binder: B4
- Kd [1]: 23 µM

Binder: B5
- stoichiometry N [2]: 2

Binder: B6
- binding result [3]: binds

Binder: B7
- binding result (SNAP23, GST cleaved): binds
- Kd [1]: ~18 µM and 17 µM and 20 µM

Binder: B8
- binding result (SNAP23, GST cleaved): binds

Binder: B9
- Kd [4]: 0.9 µM

Binder: B10
- binding result (GSTVAMP8 K24AM27A): binds
- binding result [5]: binds
